Data on nine molecules can be found in patent publication US20040253247A1 (Genentech, published 2004).

The term IC50 denotes the midpoint of a concentration-inhibition curve. Low values mean greater potency in that assay, high ones weaker potency in that assay. A word on the Kd: it is the equilibrium constant for the complex coming apart. The Ki is a dissociation constant, usually derived from enzyme kinetics or from competition with a known ligand.

Bridges are numbered along the chain shown (N, C = ends). Where no end group is shown, it is not given here. code n = not defined here

For experiment [1], the target named is T1, albumin (species not stated, D3H44 fusion assays).
T1 construct: also called immobilized albumin
T1 sequence (P49065 25-608): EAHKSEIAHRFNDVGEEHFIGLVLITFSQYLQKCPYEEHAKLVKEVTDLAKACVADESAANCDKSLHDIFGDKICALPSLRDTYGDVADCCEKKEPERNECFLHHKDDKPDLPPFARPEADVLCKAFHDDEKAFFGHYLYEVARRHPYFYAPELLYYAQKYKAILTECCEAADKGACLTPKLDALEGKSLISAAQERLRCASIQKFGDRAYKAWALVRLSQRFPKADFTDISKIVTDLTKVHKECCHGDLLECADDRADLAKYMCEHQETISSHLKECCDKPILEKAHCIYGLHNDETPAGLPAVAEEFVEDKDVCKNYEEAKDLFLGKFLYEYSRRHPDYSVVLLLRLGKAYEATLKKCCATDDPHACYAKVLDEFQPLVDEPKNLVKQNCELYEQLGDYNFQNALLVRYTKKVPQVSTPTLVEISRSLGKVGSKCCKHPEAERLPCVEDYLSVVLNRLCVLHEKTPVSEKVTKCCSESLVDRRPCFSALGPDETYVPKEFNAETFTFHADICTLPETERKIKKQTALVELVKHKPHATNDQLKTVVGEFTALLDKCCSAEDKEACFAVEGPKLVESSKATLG
The experiment in a line: SA08b competition binding assay (competitor: biotinylated SA08b), albumin species not given. On the procedure:
(§1) Plates were blocked using Blocker Casein (Pierce Chemical, Rockford, Ill.) for 1 hr, at 25° C. […] The amount of HRP bound was measured using ABTS/H₂O₂ substrate and monitoring the change at 405 nm.

Experiment [2] deals with T2, mouse albumin (mouse, UniProt P07724 25-608). Kind of experiment: SA08b binding assay: competition with biotinylated SA08b for immobilized albumin. Here is the method: as §1
T2 sequence (P07724 25-608 limits assumed): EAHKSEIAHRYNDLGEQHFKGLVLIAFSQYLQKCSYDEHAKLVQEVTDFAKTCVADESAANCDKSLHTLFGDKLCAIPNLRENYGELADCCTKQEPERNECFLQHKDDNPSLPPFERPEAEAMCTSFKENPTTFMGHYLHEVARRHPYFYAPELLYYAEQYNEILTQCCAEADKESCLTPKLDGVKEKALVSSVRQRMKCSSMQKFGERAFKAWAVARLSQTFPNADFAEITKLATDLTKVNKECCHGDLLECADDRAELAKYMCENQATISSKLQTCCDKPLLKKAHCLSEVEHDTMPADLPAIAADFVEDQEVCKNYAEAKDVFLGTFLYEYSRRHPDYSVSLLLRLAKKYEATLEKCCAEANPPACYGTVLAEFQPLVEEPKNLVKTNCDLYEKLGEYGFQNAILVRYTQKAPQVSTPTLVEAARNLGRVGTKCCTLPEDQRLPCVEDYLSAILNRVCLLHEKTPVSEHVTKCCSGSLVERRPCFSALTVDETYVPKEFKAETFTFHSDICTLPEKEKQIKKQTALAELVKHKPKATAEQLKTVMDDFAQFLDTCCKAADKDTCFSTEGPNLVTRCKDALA
Experiment [3] deals with T3, rabbit albumin (rabbit, UniProt P49065 25-608). The experiment is described as above. On the procedure: as §1
T3 sequence (P49065 25-608 limits assumed): as the sequence (P49065 25-608) above
Experiment [4] concerns the target T4, rat albumin (rat, UniProt P02770 25-608). Described as above. On the procedure: as §1
Experiment [5] deals with T5, IgG-Fc (UniProt P01857-1 108-330 = IgG part, limits assumed).
T5 construct: domain: IgG-Fc; also called biotinylated-IgG-Fc; biotin-IgG-Fc
The experiment in a line: synthetic peptide; method of the Kd not named.

The target in experiment [6] is T2, mouse albumin. The experiment in a line: SA08b competition binding assay with a mouse albumin coat. On the procedure: as §1
Experiment [7] concerns the target T4, rat albumin. Kind of experiment: SA08b competition binding assay with a rat albumin coat. On the procedure:
as §1

The target in experiment [8] is T3, rabbit albumin. The experiment in a line: SA08b competition binding assay with a rabbit albumin coat. Here is the method: as §1
The target in experiment [9] is T5, IgG-Fc. Kind of experiment: competition ELISA against immobilized Protein A Z-domain for biotinylated IgG-Fc; IC50 extrapolated to zero IgG-Fc. Here is the method: Competition ELISAs were performed in a manner similar to the method described in H. B. Lowman, et al., supra. […] Plates were then washed and developed as described using avidin/HRP conjugate. Inhibition curves were then computed for each concentration of biotin-IgG-Fc, and then the curve of half-maximal inhibition, “IC₅₀”, was extrapolated to zero biotin-IgG-Fc concentration in order to obtain a Kᵢ.

For experiment [10], the target named is T2, mouse albumin. The experiment in a line: phage ELISA, photograph of the plate. For orientation: ELISA stands for enzyme-linked immunosorbent assay.
Experiment [11] deals with human albumin (human, UniProt P02768 25-609). The experiment in a line: phage ELISA, photograph of the plate.
The target in experiment [12] is rhesus albumin (rhesus, UniProt Q28522 17-600). The experiment in a line: phage ELISA, photograph of the plate.
rhesus albumin, sequence (Q28522 17-600 limits assumed): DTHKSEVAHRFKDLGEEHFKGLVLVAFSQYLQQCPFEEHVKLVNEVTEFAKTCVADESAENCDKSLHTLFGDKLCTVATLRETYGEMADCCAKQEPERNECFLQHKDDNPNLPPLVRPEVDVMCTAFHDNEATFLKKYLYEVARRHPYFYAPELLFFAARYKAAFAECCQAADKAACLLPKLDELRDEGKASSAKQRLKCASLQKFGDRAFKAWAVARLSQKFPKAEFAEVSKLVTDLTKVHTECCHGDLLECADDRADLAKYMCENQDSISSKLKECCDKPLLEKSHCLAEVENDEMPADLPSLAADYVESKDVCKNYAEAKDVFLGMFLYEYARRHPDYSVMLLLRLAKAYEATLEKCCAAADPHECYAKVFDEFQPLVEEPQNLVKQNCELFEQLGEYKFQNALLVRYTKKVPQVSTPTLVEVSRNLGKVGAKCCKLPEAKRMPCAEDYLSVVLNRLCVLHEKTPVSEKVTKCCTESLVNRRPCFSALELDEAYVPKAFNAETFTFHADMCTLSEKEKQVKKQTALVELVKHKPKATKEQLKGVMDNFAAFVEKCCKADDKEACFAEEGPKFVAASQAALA
Experiment [13] addresses T4, rat albumin. Kind of experiment: phage ELISA, photograph of the plate.
The target in experiment [14] is T6, ovalbumin (UniProt P01012 2-386).
T6 sequence (looked up): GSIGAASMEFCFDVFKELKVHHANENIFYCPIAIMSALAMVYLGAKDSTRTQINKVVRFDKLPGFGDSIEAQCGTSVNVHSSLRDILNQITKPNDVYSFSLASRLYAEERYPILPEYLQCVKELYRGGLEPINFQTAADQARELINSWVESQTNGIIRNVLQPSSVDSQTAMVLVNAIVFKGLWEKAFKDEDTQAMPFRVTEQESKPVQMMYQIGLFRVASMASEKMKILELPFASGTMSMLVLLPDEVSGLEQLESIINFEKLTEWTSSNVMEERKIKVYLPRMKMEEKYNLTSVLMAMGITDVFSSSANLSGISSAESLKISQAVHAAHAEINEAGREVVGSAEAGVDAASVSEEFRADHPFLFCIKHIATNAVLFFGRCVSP
Kind of experiment: phage ELISA, photograph of the plate.

Experiment [15] deals with T3, rabbit albumin. The experiment in a line: phage ELISA, photograph of the plate.
The target in experiment [16] is T5, IgG-Fc. Kind of experiment: synthetic peptide; competition assay not given.

T4 sequence (P02770 25-608 limits assumed): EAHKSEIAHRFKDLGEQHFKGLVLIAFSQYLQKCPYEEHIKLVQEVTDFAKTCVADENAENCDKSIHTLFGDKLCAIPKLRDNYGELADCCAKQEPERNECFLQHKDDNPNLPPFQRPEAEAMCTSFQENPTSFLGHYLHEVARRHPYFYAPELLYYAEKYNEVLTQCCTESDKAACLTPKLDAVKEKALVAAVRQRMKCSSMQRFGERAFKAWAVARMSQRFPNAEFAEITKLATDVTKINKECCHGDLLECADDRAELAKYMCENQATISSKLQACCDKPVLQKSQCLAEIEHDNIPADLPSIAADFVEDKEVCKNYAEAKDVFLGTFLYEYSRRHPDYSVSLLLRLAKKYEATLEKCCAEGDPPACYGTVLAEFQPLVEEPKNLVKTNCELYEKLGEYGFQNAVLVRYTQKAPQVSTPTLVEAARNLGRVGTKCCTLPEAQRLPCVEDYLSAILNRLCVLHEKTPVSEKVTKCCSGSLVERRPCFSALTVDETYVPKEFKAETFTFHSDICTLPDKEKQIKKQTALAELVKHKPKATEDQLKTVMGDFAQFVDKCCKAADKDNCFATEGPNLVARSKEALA

B1: SA08 (peptide)
peptide: Ac-QGLIGDICLPRWGCLWGDSVK-{code n}
modifications: disulfide 8-14 (inferred); reading uncertain; also: printed as Gln-Gly-Leu-Ile-Gly-Asp-Ile-Cys-Leu-Pro-Arg-Trp-Gly-Cys-Leu-Trp-Gly-Asp-Ser-Val-Lys
notes: synthesized peptide; not biotinylated form of SA08b; also called SA08 peptide
For B1, the “IC50 (read off the curve)” value in experiment [1] is roughly 10 nM. Further, the results for the IC50 in experiment [2], in experiment [3] and in experiment [4] were 10 nM, 63 nM and 68 nM, respectively.
For the molecule H-DLADCSWHMGELVWCSRVEG-NH2 (disulfide 5-15 (inferred), Synthetic peptide) [peptide DLADCSWHMGELVWCSRVEG], binding in [5] was characterised by a dissociation constant (Kd) of 50 nM.

B2: SA06 (peptide)
peptide: QRLMEDICLPRWGCLWEDDF-{code n}
modifications: disulfide 8-14 (inferred); not fully specified; reading uncertain
notes: synthesized peptide; also called Peptide SA06
On to B2, for which the IC50 in experiment [6] amounted to 8 nM; in experiment [2], 8 nM; in experiment [3] it was 128 nM; in experiment [4], 68 nM; in [7], 61 nM; in experiment [8] it was 174 nM.

B3: Fc-I peptide ETQRCTWHMGELVWCEREHN (peptide)
peptide: H-ETQRCTWHMGELVWCEREHN-NH2
modifications: disulfide 5-15 (inferred)
notes: Synthetic peptide; disulfide-constrained library origin
With B3, in [9], the inhibitory constant (Ki) is 5000 nM.
As for GENWCDWVLLAYDLCGEDNT (phage clone, Library BA) [BA-B37], the binding result in experiment [10], in experiment [11], in experiment [12], in experiment [13] and in [14] was “no binding” each time.
Take EVRSFCTDWPAHYSCTSLQG (phage clone, Library HA) [HA-H74]: the binding result in [10], in [15], in experiment [13] and in experiment [14] was “no binding” throughout.

B4: Fc-II peptide KEASCSYWLGELVWCVAGVE (peptide)
peptide: H-KEASCSYWLGELVWCVAGVE-NH2
modifications: disulfide 5-15 (inferred)
notes: as for B3
As for B4, the Ki in experiment [9] was 5000 nM.
With MELWCDSTLMAYDLCGDFNM (phage clone, Library BA) [BA-B39], the binding result in experiment [10], in experiment [11], in experiment [12], in experiment [13] and in experiment [14] was “no binding” throughout.
On to H-WEADCAWHLGELVWCTPMEF-NH2 (disulfide 5-15 (inferred), Synthetic peptide) [peptide WEADCAWHLGELVWCTPMEF], for which, in experiment [16], the half-maximal inhibitory concentration (IC50) stood at 30 nM.
